Test results reported in US7517850B2, “Calcium phosphate nanoclusters and their applications” (priority 1999, dated 2009).
Read-outs that look alike come from different tables or passages of the source. Ends that are not written are not given here.

Experiments:
[1] = Test for nanocluster formation (absence of precipitation); type: physicochemical; settings: standard conditions for β-casein phosphopeptide nanoclusters modified to the smallest extent; absence of precipitation = nanocluster-like particles
From the text: Nanocluster formation was investigated with the following phosphoproteins, phosphoprotein mixtures, phosphopeptides and phosphopeptide mixtures: • 1. Whole casein • 2. Mixtures of β- and κ-caseins • 3. β-casein 5P • 4. A commercial phosphopeptide mixture supplied by MD foods and derived from casein, containing a large number of phosphopeptides as described by Ellegard et al. (1999). • 5. A phosphopeptide mixture derived from a digestion of whole casein with protease XIV from Streptomyces griseus, and papain type IV containing αs1-casein 2P (f46-51), αs1-casein 4P (f61-70), β-casein 4P (f11-21), αs2-casein 3P (f5-12), αs2-casein 4P (f49-61) and αs2-casein 2P (f126-133). • 6. β-casein phosphopeptides 4P (f1-25) or 4P (f2-25) or 5P (f1-42) • 7. Cyanogen bromide cleavage fragments αs1-casein 2P (f1-54) or αs1-casein 6P (f61-123). • […]. Tryptic phosphopeptides αs1-casein 1P (f104-119) or αs1-casein 2P (f43-58) or αs1-casein 5P (f59-79) or αs1-casein 7P (f43-79)
A test for nanocluster formation was applied in which the standard conditions for the formation of nanoclusters from the β-casein phosphopeptide were modified to the smallest extent possible and applied to the other peptides or peptide mixtures. […] Nanoclusters were found with each of the 6 phosphopeptides and confirmed experimentally by X-ray scattering measurements.

[2] = Confirmation of nanocluster formation by small angle X-ray or neutron scattering; type: physicochemical
From the text: The formation of nanoclusters, nanocluster-like particles or larger particles composed of assemblies of nanoclusters has been established by small angle X-ray or neutron scattering experiments, as described by Holt et al. (1996, 1998).

[3] = small angle X-ray or neutron scattering; Holt et al., 1996, 1998; cited from earlier work

| Molecule | outcome of test for nanocluster formation [1] | Conclusion (nanocluster formation) [2] | Conclusion (nanocluster formation) [3] |
| --- | --- | --- | --- |
| αs1-casein 1P (f104-119): tryptic phosphopeptide of αs1-casein, item 8 (YKVPQLEIVPNSAEER; also: 1 phosphorylation, site not given here; UniProt P02662 119-134, looked up, fragment) | No stable nanocluster solution was formed | Precipitation of calcium phosphate |  |
| αs1-casein 2P (f1-54): cyanogen bromide cleavage fragment of αs1-casein, item 7 (RPKHPIKHQGLPQEVLNENLLRFFVAPFPEVFGKEKVNELSKDIGSESTEDQAM; also: 2 phosphorylations, sites not given here; UniProt P02662 16-69, looked up, fragment) | failed to dissolve |  |  |
| αs1-casein 2P (f43-58): tryptic phosphopeptide of αs1-casein, item 8 (DIGSESTEDQAMEDIK; also: 2 phosphorylations, sites not given here; UniProt P02662 58-73, looked up, fragment) | No stable nanocluster solution was formed | Precipitation of calcium phosphate |  |
| αs1-casein 5P (f59-79): tryptic phosphopeptide of αs1-casein, item 8 (QMEAESISSSEEIVPNSVEQK; also: 5 phosphorylations, sites not given here; UniProt P02662 74-94, looked up, fragment) | Nanoclusters were formed | Clear solution of stable nanoclusters in the normal |  |
| αs1-casein 7P (f43-79): tryptic phosphopeptide of αs1-casein, item 8 (DIGSESTEDQAMEDIKQMEAESISSSEEIVPNSVEQK; also: 7 phosphorylations, sites not given here; UniProt P02662 58-94, looked up, fragment) | Nanoclusters were formed | Clear solution of stable nanoclusters in the normal |  |
| β-casein phosphopeptide 4P (f1-25): β-casein phosphopeptide residues 1-25 with 4 phosphorylated residues, item 6 (RELEELNVPGEIVESLSSSEESITR; also: 4 phosphorylations, sites not given here; UniProt P02666 16-40, looked up, fragment) |  |  | Monodisperse nanoclusters formed (Holt et al., 1996, |
| β-casein phosphopeptide 4P (f2-25): β-casein phosphopeptide residues 2-25 with 4 phosphorylated residues, item 6 (ELEELNVPGEIVESLSSSEESITR; also: 4 phosphorylations, sites not given here; UniProt P02666 17-40, looked up, fragment) |  | Monodisperse nanoclusters formed |  |
| β-casein phosphopeptide 5P (f1-42): β-casein phosphopeptide residues 1-42 with 5 phosphorylated residues, item 6 (RELEELNVPGEIVESLSSSEESITRINKKIEKFQSEEQQQTE; also: 5 phosphorylations, sites not given here; UniProt P02666 16-57, looked up, fragment) |  |  | Monodisperse nanoclusters formed (Holt et al., 1996, |
| β-casein 5p: β-casein phosphoprotein with 5 phosphorylated residues, item 3 (protein, UniProt P02666 16-224, looked up, 5 phosphorylations, β-casein phosphoprotein with 5 phosphorylated residues, item 3) Beta-casein: RELEELNVPGEIVESLSSSEESITRINKKIEKFQSEEQQQTEDELQDKIHPFAQTQSLVYPFPGPIPNSLPQNIPPLTQTPVVVPPFLQPEVMGVSKVKEAMAPKHKEMPFPKYPVEPFTESQSLTLTDVENLHLPLPLLQSWMHQPHQPLPPTVMFPPQSVLSLSQSKVLPVPQKAVPYPQRDMPIQAFLLYQEPVLGPVRGPFPIIV | underwent an unlimited aggregation | Uncontrolled precipitation of the β-casein aggregates |  |
